Test results reported in US20150329642A1 (Genmab, published 2015).

Assays:
[1] = biological target: T1, cMetECDHis (human, UniProt P08581 25-932, limits assumed, biotinylated in the cross-block ELISA of Example 17); experiment: BLI (Octet); antibody captured, cMetECDHis in solution
T1 construct: Expressed in HEK-293F cells; also called soluble cMetECDHis; biotinylated cMetECDHis
Procedure: Antibody binding to cMetECDHis was analyzed by means of Bio-Layer Interferometry (BLI) technology on the Octet System (Fortebio, Menlo Park, USA). Anti-human IgG coated biosensors (Fc-specific) were used to capture anti-c-Met antibodies according to the procedure recommended by the manufacturer. cMetECDHis derived from HEK293 cells was loaded on top of the immobilized anti-c-Met antibodies by placing the loaded biosensor into a well containing 10 μg/mL cMetECDHis diluted in 10 times diluted kinetics buffer (Fortebio). The difference in reflection of light (AA, nm) of the biosensor surface due to the binding of cMetECDHis was measured in real time during approximately 10 minutes and was used by the Octet software (V4.0, Fortebio) to calculate the association constant (kₐ [1/M×s]). Next, the loaded biosensor was placed into a well containing only kinetics buffer (10 times diluted in PBS) to determine the dissociation constant (kd [1/s]). Kinetics analysis was performed to determine the affinity (KD [M]) using model 1:1 (langmuir). As a positive control, 0.2 μg/mL 5D5 IgG1 produced in HEK293 cells, was used.

[2] = biological target: T2, recombinant human c-Met extracellular domain (R&D systems) (human, UniProt P08581 25-932); experiment: competition ELISA, residual Europium-HGF signal at 615 nm at the lower plateau of the fit; sheet prints no competing mAb ~66000, no HGF-Europium ~600; lower panel
T2 construct: extracellular domain; Bought reagent; also called coated extracellular domain of c-Met; recombinant c-Met
Procedure: (§1) ELISA wells were coated overnight at 4° C. with 0.5 μg/mL recombinant human c-Met extracellular domain (R&D systems, Minneapolis, USA) diluted in PBS. Next, the ELISA wells were washed with PBST (PBS supplemented with 0.05% Tween-20 [Sigma-Aldrich, Zwijndrecht, The Netherlands]) and blocked for one hour at room temperature (RT) with PBST supplemented with 2% (v/v) chicken serum (Gibco, Paisley, Scotland). […] Mean fluorescence intensity at 615 nm was measured using the EnVision 2101 Multilabel reader (PerkinElmer) applying the following settings: Lance/Delfia dual mirror, emission filter 615, excitation filter 340 nm, delay time 400 μs, window 400 μs, 100 flashes, 2000 μs per cycle and bidirectional row-by-row reading. To determine IC₅₀ values, the binding curves were analyzed with non-linear regression (sigmoidal dose-response with variable slope, top-values constrained to a shared value for all data-sets) using GraphPad Prism V4.03 software (GraphPad Software, San Diego, Calif., USA).
(§2) FIG. 5 depicts representative examples of HGF binding inhibition curves of anti-c-Met antibodies for binding to the extracellular domain of recombinant human c-Met. 5D5 was used as positive control antibody. All anti-c-Met antibodies in the experiment shown were able to compete with Europium^{3±}-conjugated HGF for binding to recombinant c-Met. […] Without adding Europium³⁺-conjugated HGF, roughly ˜600 relative fluorescent units (RFU) were detected, indicating the signal when maximal inhibition is accomplished. When binding of Europium³⁺-conjugated HGF was not inhibited, approximately ˜66,000 RFU were detected.

[3] = biological target: T2, recombinant human c-Met extracellular …; experiment: competition ELISA on coated recombinant c-Met extracellular domain; blocked ligand Europium-conjugated HGF; column headed EC50 on the sheet, called IC50 in paragraph 270; lower panel
Procedure: as §1, §2

[4] = biological target: T3, human c-Met, membrane-bound on cells (human, UniProt P08581 25-1390); experiment: cell-based or functional assay
[5] = biological target: T3, human c-Met, membrane-bound on cells; experiment: flow cytometry on A431 cells
Procedure: (§3) The binding of anti-c-Met antibodies and monovalent forms thereof (also termed “UniBody molecules” herein, see Example 5) to A431 cells expressing membrane-bound c-Met (purchased at ATCC, CRL-1555) was tested using flow cytometry (FACS Canto II, BD Biosciences). […] Binding of anti-c-Met antibodies and UniBody molecules was detected using a Phycoerythrin-conjugated goat-anti-human IgG antibody (Jackson). IgG1-5D5 was used as positive control antibody, and HuMab-KLH was used as isotype control antibody. EC₅₀ values were determined by means of non-linear regression (sigmoidal dose-response with variable slope) using GraphPad Prism V4.03 software (GraphPad Software, San Diego, Calif., USA).
(§4) Also maximum binding levels were unchanged between IgG1's and UniBody molecules. For antibodies 005, 006, 008, 035, 045 and 058, on the other hand, a more than 2-fold […] as well as a decrease in maximum binding level was observed when comparing IgG1 with their UniBody counterpart. This was most likely due to the […] (Kd) of these antibodies (see Example 14).

[6] = biological target: T3, human c-Met, membrane-bound on cells; experiment: flow cytometry on A431 cells (PE goat anti-human IgG); second panel
Procedure: as §3, §4

[7] = biological target: T3, human c-Met, membrane-bound on cells; experiment: flow cytometry on A431 cells (PE goat anti-human IgG); top panel
Procedure: as §3, §4

fold change of EC50, UniBody molecule against IgG1 of the identical clone [5] [fold] | EC50 [6] [nM] | EC50 [7] [nM] | Binder | also measured
 |  |  | anti-c-Met HuMab 096 (IgG1) (antibody, V domains shown, also called TH1016-096; PC1016-096) VH: EVQLVQSGAEVKKPGESLKISCKGSGYSFTSYWIGWVRQMPGKGLEWMGIIYPGDSDTRYSPSFQGQVTISADKSISTAYLQWSSLKASDTAMYYCARQEITGDFDYWGQGTLVTVSS VL: AIQLTQSPSSLSASVGDRVTITCRASQGISSALAWYQQKPGKAPNLLIYAASSLESGVPSRFSGSGSGTDFTLTISSLQPEDFATYYCQQFNSYPLTFGGGTKVEIK | Kd [1]: 2.55 nM; koff [1]: 0.0005 s⁻¹; kon [1]: 196000 M⁻¹ s⁻¹; Bottom [2]: 24800 RFU; IC50 [3]: 0.0152 mg/L
< 2 | 1.66 |  | Uni-1016-022-TE (other, also called UniBody molecule of antibody 022) VH: QVQLVESGGGVVQPGRSLRLSCAASGFTFSSYAMHWVRQAPGKGLEWVAVISYDGSNKYYADSVKGRFTISRDNSKNTLYLQMNSLRAEDTAVYYCARELLWFGELWGYFDLWGRGTLVTVSS VL: DIQMTQSPSSVSASVGDRVTITCRASQGISSWLAWYQHKPGKAPKLLIYAASSLQSGVPSRFSGSGSGTDFTLTISSLQPEDFATYYCQEASSFTWTFGQGTKVEIK | percentage inhibition of viable KP4 cells (Alamarblue) [4]: 57%
> 2 | 13.9 | 0.323 | Uni-1016-006 (other, also called UniBody molecule of antibody 006) VH: QVQLVQSGAEVKKPGSSVKVSCKASGGTFSSFGIGWVRQAPGQGLEWMGRIFPILGTANYAQMFQGRVTITADKSTSTAYMELTSLRSEDTAVYYCARDVGYDSADAFDIWGQGTMVTVSS VL: DIQMTQSPSSLSASVGDRVTITCRASQGISSWLAWYQQKPEKAPKSLIYAASSLQSGVPSRFSGSGSGTDFTLTISSLQPEDFATYYCQQYNSYPPTFGQGTKVEIK | 
> 2 |  | 0.67 | Uni-1016-058-TE (other, also called UniBody molecule of antibody 058) VH: EVQLVESGGGLVKPGGSLKLSCAASGFTFSDYYMYWVRQTPEKRLEWVATISDDGSYTYYPDSVKGRFTISRDNAKNNLYLQMSSLKSEDTAMYYCAREGLYYYGSGSYYNQDYWGQGTLVTVSS VL: AIQLTQSPSSLSASVGDRVTITCRASQGLSSALAWYRQKPGKAPKLLIYDASSLESGVPSRFSGSGSGTDFTLTISSLQPEDFATYYCQQFTSYPQITFGQGTRLEIK | 
 |  | 0.276 | IgG4-058 (antibody, V domains shown, IgG4 format of clone 058; also called IgG4-1016-058) VH: EVQLVESGGGLVKPGGSLKLSCAASGFTFSDYYMYWVRQTPEKRLEWVATISDDGSYTYYPDSVKGRFTISRDNAKNNLYLQMSSLKSEDTAMYYCAREGLYYYGSGSYYNQDYWGQGTLVTVSS VL: AIQLTQSPSSLSASVGDRVTITCRASQGLSSALAWYRQKPGKAPKLLIYDASSLESGVPSRFSGSGSGTDFTLTISSLQPEDFATYYCQQFTSYPQITFGQGTRLEIK | 
